Read-outs that look alike come from different tables or passages of the source.
Legend:
[1] = molecular target: T1, Chlorella sorokiniana chloroplastic NADP-specific glutamate dehydrogenase (NADP-GDH) α-homohexamer, native (mature α-subunit SEQ ID NO. 24) (Chlorella sorokiniana, UniProt P28998, E496R/E82D/G270P/L83V); assay: Km values, aminating reaction, α-homohexameric isoenzyme; type: biochemical; details: NH4^+ range, depending on the NADPH concentration (b9)
T1 construct: endogenous in cells; host or cells: Chlorella sorokiniana (UTEX-1230; 3B2NA), cultured in 29 mM ammonium medium; enzyme purified from the cells
T1 sequence (P28998 with tags, fused parts or gaps E82D/L83V/G270P/E496R): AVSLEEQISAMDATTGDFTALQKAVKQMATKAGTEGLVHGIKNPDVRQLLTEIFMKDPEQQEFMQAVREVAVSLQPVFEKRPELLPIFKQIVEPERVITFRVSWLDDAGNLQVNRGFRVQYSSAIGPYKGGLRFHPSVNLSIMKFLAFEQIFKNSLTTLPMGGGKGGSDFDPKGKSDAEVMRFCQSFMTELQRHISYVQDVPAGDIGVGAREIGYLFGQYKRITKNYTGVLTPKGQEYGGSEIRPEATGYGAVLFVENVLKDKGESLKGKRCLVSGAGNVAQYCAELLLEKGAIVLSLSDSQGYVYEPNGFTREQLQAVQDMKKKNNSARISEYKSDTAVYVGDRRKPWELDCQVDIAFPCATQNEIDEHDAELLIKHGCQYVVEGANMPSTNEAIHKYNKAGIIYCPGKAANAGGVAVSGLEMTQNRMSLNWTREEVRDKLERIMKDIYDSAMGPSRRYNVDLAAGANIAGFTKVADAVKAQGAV
Excerpt: (§1) The chloroplastic glutamate dehydrogenase α- and β-isoenzymes used in the following experiments are naturally produced by an organism characterized as Chlorella sorokiniana.
(§2) C. sorokiniana culture conditions. For kinetic characterization in both the aminating and deaminating directions, the α- and β-holoenzymes were purified from cells that were accumulating only one form of homohexameric GDH isoenzyme.
(§3) The C. sorokiniana cells (UTEX-1230, University of Texas algal culture collection; 3B2NA, Robert R. Schmidt, University of Florida, Microbiology Cell Science Department) were cultured autotrophically as previously described by Prunkard et al., supra in a modified basal salts medium. […]
(§4) For preparative nondenaturing PAGE, a 3 cm tall 7% acrylamide (w/v, 28 acrylamide: 0.735 bis-acrylamide, pH 8.8) resolving gel, and a 2 cm tall 2% acrylamide (w/v, 1.6 acrylamide: 0.4 bis-acrylamide, pH 6.6) stacking gel were cast in the 28 mm ID gel tube of the Model 491 Prep Cell. […] The enzyme in the pooled fractions in 10 mM KPO4 (pH 6.2), 0.1 mM NADP^+ was concentrated by Diaflow ultrafiltration to 1 mg/mL as determined by the method of Bradford, using BSA as a standard. […] The purity of the preparation was determined by silver-staining to visualize proteins resolved by 10% (w/v) Tris-Tricine SDS-PAGE (Schagger, H., G. von Jagow [1987] Anal. Biochem. 166:368-379). […]

[2] = molecular target: T2, Chlorella sorokiniana chloroplastic NADP-specific glutamate dehydrogenase (NADP-GDH) β-homohexamer, native (mature β-subunit SEQ ID NO. 26) (Chlorella sorokiniana, UniProt P28998, E496R/E82D/G270P/L83V); assay: Km values, aminating reaction, β-homohexameric isoenzyme; type: biochemical
T2 construct: endogenous in cells; host or cells: Chlorella sorokiniana (UTEX-1230; 3B2NA), cells cultured in 1 mM or 29 mM ammonium medium; enzyme purified from the cells
T2 sequence (P28998 49-523 E82D/L83V/G270P/E496R): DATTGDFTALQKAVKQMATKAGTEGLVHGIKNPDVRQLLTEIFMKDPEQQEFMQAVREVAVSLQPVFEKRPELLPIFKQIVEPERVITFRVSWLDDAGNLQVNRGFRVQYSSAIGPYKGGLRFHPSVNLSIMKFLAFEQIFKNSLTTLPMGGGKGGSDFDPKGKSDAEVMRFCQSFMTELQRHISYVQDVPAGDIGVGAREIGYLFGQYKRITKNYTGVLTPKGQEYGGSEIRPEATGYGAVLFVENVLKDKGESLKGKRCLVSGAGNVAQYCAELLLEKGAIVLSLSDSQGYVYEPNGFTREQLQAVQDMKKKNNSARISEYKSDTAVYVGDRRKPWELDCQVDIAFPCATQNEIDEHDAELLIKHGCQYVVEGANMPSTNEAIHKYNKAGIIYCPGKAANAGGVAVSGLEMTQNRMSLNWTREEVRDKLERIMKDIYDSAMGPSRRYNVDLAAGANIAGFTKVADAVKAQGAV
Excerpt: as §1, §2, §3
(§5) The NADP-GDH β-isoenzyme was purified from a mixture of cells cultured for 240 minutes in 1 mM ammonium medium (14 g), 90 minutes in 1 mM ammonium medium (6 g), and for 20, 40, 60, and 80 minutes in 29 mM ammonium medium (1 g/time point) according to Bascomb and Schmidt, supra. […] The NADP-GDH in the pooled fractions was concentrated via Diaflow ultrafiltration to 2 mg/ml protein, as determined by the method of Bradford (Bradford, M. M. [1976] Anal. Biochem. 72:248-254), and stored at 4° C. until further use. After resolution of the proteins by 8% (w/v) Tris-Tricine SDS-PAGE, the purity of the preparation was determined by silver staining. […]

[3] = molecular target: T2, Chlorella sorokiniana chloroplastic NADP-specific glutamate dehydrogenase (NADP-GDH) β-homohexamer, native (mature β-subunit SEQ ID NO. 26); details: β-homohexamer purified from Chlorella cells (catabolic form), non-allosteric; read-out: ammonium Km; cited from earlier work
[4] = substrate: NC(=O)C1=CN([C@@H]2O[C@H](COP(=O)(O)OP(=O)(O)OC[C@H]3O[C@@H](n4cnc5c(N)ncnc54)[C@H](OP(=O)(O)O)[C@@H]3O)[C@@H](O)[C@H]2O)C=CC1; assay: Km values, aminating reaction, α-homohexameric isoenzyme; type: biochemical, Chlorella sorokiniana; details: other: α-homohexamer, 38.5 °C
Excerpt: as §1, §2, §3, §4

[5] = substrate: NC(=O)c1ccc[n+]([C@@H]2O[C@H](COP(=O)([O-])OP(=O)(O)OC[C@H]3O[C@@H](n4cnc5c(N)ncnc54)[C@H](OP(=O)(O)O)[C@@H]3O)[C@@H](O)[C@H]2O)c1; assay: Km values, deaminating reaction, α-homohexameric isoenzyme; type: biochemical, Chlorella sorokiniana; details: other: α-homohexamer, 38.5 °C
Excerpt: as §1, §2, §3, §4

[6] = substrate: N[C@@H](CCC(=O)O)C(=O)O; assay: as above; type: biochemical, Chlorella sorokiniana; details: other: α-homohexamer, 38.5 °C
Excerpt: as §1, §2, §3, §4

[7] = substrate: O=C(O)CCC(=O)C(=O)O; assay: purified protein, by the assay type; details: other: β-homohexamer, aminating reaction; 38.5 °C
[8] = substrate: NC(=O)C1=CN([C@@H]2O[C@H](COP(=O)(O)OP(=O)(O)OC[C@H]3O[C@@H](n4cnc5c(N)ncnc54)[C@H](OP(=O)(O)O)[C@@H]3O)[C@@H](O)[C@H]2O)C=CC1; assay: Km values, aminating reaction, β-homohexameric isoenzyme; type: biochemical, Chlorella sorokiniana; details: other: β-homohexamer, 38.5 °C
Excerpt: as §1, §2, §3, §5

[9] = substrate: NC(=O)c1ccc[n+]([C@@H]2O[C@H](COP(=O)([O-])OP(=O)(O)OC[C@H]3O[C@@H](n4cnc5c(N)ncnc54)[C@H](OP(=O)(O)O)[C@@H]3O)[C@@H](O)[C@H]2O)c1; assay: Km values, deaminating reaction, β-homohexameric isoenzyme; type: biochemical, Chlorella sorokiniana; details: other: β-homohexamer, 38.5 °C
Excerpt: as §1, §2, §3, §5

[10] = substrate: N[C@@H](CCC(=O)O)C(=O)O; assay: as above; type: biochemical, Chlorella sorokiniana; details: other: β-homohexamer, 38.5 °C
Excerpt: as §1, §2, §3, §5

## N [NH4^+, ammonium]
[1]
  Km: 0.02 to 3.5 mM
[2]
  Km: 77 mM
[3]
  Km: ~75 mM

B1: Chlorella sorokiniana chloroplastic NADP-specific glutamate dehydrogenase (NADP-GDH) α-homohexamer, native (mature α-subunit SEQ ID NO. 24) (Chlorella … (protein)
chain: AVSLEEQISAMDATTGDFTALQKAVKQMATKAGTEGLVHGIKNPDVRQLLTEIFMKDPEQQEFMQAVREVAVSLQPVFEKRPELLPIFKQIVEPERVITFRVSWLDDAGNLQVNRGFRVQYSSAIGPYKGGLRFHPSVNLSIMKFLAFEQIFKNSLTTLPMGGGKGGSDFDPKGKSDAEVMRFCQSFMTELQRHISYVQDVPAGDIGVGAREIGYLFGQYKRITKNYTGVLTPKGQEYGGSEIRPEATGYGAVLFVENVLKDKGESLKGKRCLVSGAGNVAQYCAELLLEKGAIVLSLSDSQGYVYEPNGFTREQLQAVQDMKKKNNSARISEYKSDTAVYVGDRRKPWELDCQVDIAFPCATQNEIDEHDAELLIKHGCQYVVEGANMPSTNEAIHKYNKAGIIYCPGKAANAGGVAVSGLEMTQNRMSLNWTREEVRDKLERIMKDIYDSAMGPSRRYNVDLAAGANIAGFTKVADAVKAQGAV
notes: endogenous in cells; host or cells: Chlorella sorokiniana (UTEX-1230; 3B2NA), cultured in 29 mM ammonium medium; enzyme purified from the cells
[4]
  Km: 0.14 mM
[5]
  Km: 0.04 mM
[6]
  Km: 38.2 mM

B2: Chlorella sorokiniana chloroplastic NADP-specific glutamate dehydrogenase (NADP-GDH) β-homohexamer, native (mature β-subunit SEQ ID NO. 26) (Chlorella … (protein)
chain: DATTGDFTALQKAVKQMATKAGTEGLVHGIKNPDVRQLLTEIFMKDPEQQEFMQAVREVAVSLQPVFEKRPELLPIFKQIVEPERVITFRVSWLDDAGNLQVNRGFRVQYSSAIGPYKGGLRFHPSVNLSIMKFLAFEQIFKNSLTTLPMGGGKGGSDFDPKGKSDAEVMRFCQSFMTELQRHISYVQDVPAGDIGVGAREIGYLFGQYKRITKNYTGVLTPKGQEYGGSEIRPEATGYGAVLFVENVLKDKGESLKGKRCLVSGAGNVAQYCAELLLEKGAIVLSLSDSQGYVYEPNGFTREQLQAVQDMKKKNNSARISEYKSDTAVYVGDRRKPWELDCQVDIAFPCATQNEIDEHDAELLIKHGCQYVVEGANMPSTNEAIHKYNKAGIIYCPGKAANAGGVAVSGLEMTQNRMSLNWTREEVRDKLERIMKDIYDSAMGPSRRYNVDLAAGANIAGFTKVADAVKAQGAV
notes: endogenous in cells; host or cells: Chlorella sorokiniana (UTEX-1230; 3B2NA), cells cultured in 1 mM or 29 mM ammonium medium; enzyme purified from the cells
[7]
  Km: 12 mM
[8]
  Km: 0.14 mM
[9]
  Km: 0.04 mM
[10]
  Km: 32.3 mM

From patent US7485771B2, “Polypeptides and polynucleotides relating to the α- and β-subunits of glutamate dehydrogenases and methods of use” (University of Florida Research Foundation, Inc., priority 1995, dated 2009)
